# Test results from patent US20130230533A1 (Regeneron, published 2013).
# Substitutions are numbered along the chain they refer to. Names and notes keep the numbering of the source.
# T1: human CD48 (on primary human peripheral blood mononuclear cells) (human, UniProt P09326 27-220)
# T1 sequence: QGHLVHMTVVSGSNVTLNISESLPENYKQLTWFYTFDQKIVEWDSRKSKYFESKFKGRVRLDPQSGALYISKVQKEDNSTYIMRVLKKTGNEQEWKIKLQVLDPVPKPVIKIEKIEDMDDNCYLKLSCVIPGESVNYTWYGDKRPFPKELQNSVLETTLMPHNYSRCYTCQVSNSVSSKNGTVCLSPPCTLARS
# T2: monomeric monkey CD48 expressed with a tag consisting of 2 myc and one 6-His epitopes (monkey)
# T2 construct: also called mfCD48-mmH; Monomeric monkey CD48-mmH
# T2 chain: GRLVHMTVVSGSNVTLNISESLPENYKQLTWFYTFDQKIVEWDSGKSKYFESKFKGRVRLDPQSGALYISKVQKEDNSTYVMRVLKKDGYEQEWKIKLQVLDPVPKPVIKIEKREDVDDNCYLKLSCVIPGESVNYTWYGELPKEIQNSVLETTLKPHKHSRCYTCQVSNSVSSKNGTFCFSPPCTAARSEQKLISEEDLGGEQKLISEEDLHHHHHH
# T3: biotinylated dimeric human CD48 protein expressed as a fusion with mouse IgG2a Fc (human, biotinylated)
# T3 construct: also called bio-hCD48-mFc; Dimeric human CD48-mFc
# T3 chain: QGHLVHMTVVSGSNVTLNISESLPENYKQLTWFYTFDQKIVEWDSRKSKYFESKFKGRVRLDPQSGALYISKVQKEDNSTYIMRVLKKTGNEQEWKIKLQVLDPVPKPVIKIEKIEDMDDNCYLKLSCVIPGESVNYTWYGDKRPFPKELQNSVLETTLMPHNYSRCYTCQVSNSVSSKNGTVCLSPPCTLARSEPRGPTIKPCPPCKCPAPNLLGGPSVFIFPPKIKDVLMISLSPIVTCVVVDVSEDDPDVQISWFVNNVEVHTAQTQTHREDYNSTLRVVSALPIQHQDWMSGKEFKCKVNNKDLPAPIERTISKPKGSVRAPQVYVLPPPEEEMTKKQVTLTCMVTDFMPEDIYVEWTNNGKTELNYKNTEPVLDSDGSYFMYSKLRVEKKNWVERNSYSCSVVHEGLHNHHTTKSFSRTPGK
# B1: H2M1707N (antibody, V domains shown)
# VH: EGQLLESGGGLAQPGGSLRLSCAASGITFGRYAMSWVRQAPGKGLEWVSLISGSGGSTYHADSVKGRFTISRDNSKNTLYLQMNSLRAEDTAVYYCAIYNNYNWFDPWGQGTLVTVSS
# VL: EIVLTQSPGTLSLSPGERATLSCRASQSVSSNYLAWYQQKPGQAPRLLIYDASSRATDIPDRFSGSGSGTDFTLTISRLEPEDFAVYYCQQYGSSPRTFGQGTKVEIK
# notes: Human variable domains, mouse IgG2 Fc (H2M)
# B2: H2M1764N (antibody, mouse IgG2, V domains shown)
# VH: QVQLVESGGGVVQPGRSLRLSCAASGFTFSDYGMHWVRQAPGKGLEWVAVIWNDGSNKNYADSVKGRFSISSDSSKNTLYLHMNSLRAEDTAVYYCARSLYSTSPWYFDLWGRGTLVTVSS
# VL: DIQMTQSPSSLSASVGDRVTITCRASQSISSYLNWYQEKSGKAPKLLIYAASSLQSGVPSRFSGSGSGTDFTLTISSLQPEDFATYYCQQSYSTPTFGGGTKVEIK
# notes: as for B1
# B3: H2M1710N (antibody, mouse IgG2, V domains shown)
# VH: QVQLVQSGADMKKPGASVRVSCKASGYTFTDYFIHWVRQAPGQGPEWMGWINPDSGATNYAQQFQGRVTMTRDTSISATYMEMSRLRSDDTAVFYCARDKDGSGWYLDDWGQGTLVTVSS
# VL: EIVLTQSPATLSLSPGERATLSCRASQSVNIYLAWYQQKPGQAPRLLIYDASNRASGIPARFSGSGSGTDFTLTISSLEPEDFAVYYCQQRSNWPPSITFGQGTRLEIK
# notes: as for B1
# B4: H2M1713N (antibody, mouse IgG2, V domains shown)
# VH: QVQLVQSGAEVKKPGASVKVSCKASGHTFTNYYIHWVRQAPGQGLEWMGITNPNDGNTRYAQKFQGRISMTWDTSTSTVFMELSSLKSEDTAVYYCAGLRYWFFDLWGRGTPVTVSS
# VL: DIQMTQSPSSVSASVGDRVTITCRASQDISSWLAWYQQKPGKAPNLLIFAASSLQSGVPSRFSGSGSGTDFTLTISSLQPEDFGTYYCQQTDNFPRTFGQGTKVEIN
# notes: as for B1
# B5: H2M1763N (antibody, mouse IgG2, V domains shown)
# VH: QIQLVQSGAEMKRPGTSVKVSCKASGYTFTSYGINWVRQAPGQGLEWMGWISAYNGDTNYAQKLQGRVTMTTDTSTTTAYMEVRSLRSDDTAVYYCARFLTGTKDYYYGMDVWGQGTTVTVSS
# VL: DIQMTQSPSSLSASVGDRVTITCQASQDISNFLNWYQQKPGKAPDLLINDASILETGVPSRFSGSGSGTDFTLTINNLQPEDIATYYCQQYDNLPLTFGGGTKVEIK
# notes: as for B1
# B6: H2M1811N (antibody, mouse IgG2, V domains shown)
# VH: QVQLVQSGAEAREPGASVRVSCKASGYTFTDYFIHWVRQAPGQGLEWMGWINPNSGATNFAQKFQGRVTMTRDTSLITAYMDLSRLKSDDAAVFYCARDVDGSGWYLDFWGQGTLVTVSS
# VL: B3 VL with N30S, S56T, S77R, N93D
# notes: as for B1
# Biological target: T1, human CD48 (on primary human peripheral …)
# Test: cell-based or functional assay
Binder,Inhibition of IFN-gamma Release IC50; Donor 6 [Molar],Inhibition of IFN-gamma Release IC50; Donor 7 [Molar]
B1,9.3e-12,1.9e-11
B2,1e-10,–
B3,5e-11,1.4e-10
B4,2.2e-11,1e-10
B5,2.6e-11,1.8e-11

# Biological target: T2, monomeric monkey CD48 expressed with a …
# Test: competition ELISA; blocks mfCD48-mmH binding to coated h2B4-mFc
# Protocol: (§1) The ability of human anti-CD48 monoclonal antibodies to block human CD48 and monkey CD48 binding to the human cognate ligand, human 2B4, was measured using a competition sandwich ELISA (Table 8). Constant amounts of biotinylated dimeric human CD48 protein expressed as a fusion with mouse IgG2a Fc (“bio-hCD48-mFc” [SEQ ID NO: 387]) or monomeric monkey CD48 expressed with a tag consisting of 2 myc and one 6-His epitopes (“mfCD48-mmH” [SEQ ID NO: 386]) were separately titrated with varying amounts of antibodies. These antibody-protein complexes were incubated (1 hr, 25° C.) before being transferred to microtiter plates coated with a dimeric construct expressing the human 2B4 receptor fused to a either human IgG1 (h2B4-hFc [R&D Systems, Inc., Minneapolis, Minn., Cat. No. 1039-2B]) or mouse IgG2a Fc (h2B4-mFc [SEQ ID NO: 389). After a 1 hr at 25° C. the wells were washed and bound human CD48 was detected with streptavidin conjugated with horse-radish peroxidase (HRP), and monkey CD48 was detected with an HRP conjugated anti-myc polyclonal antibody. The ELISA was developed with a TMB solution to produce a colorimetric reaction and quenched with sulfuric acid before reading absorbance at 450 nm on a Victor X5 plate reader. Sigmoidal dose response curves were fit to the data using Prism™ software. […] (Tables 8 and 9, NB=no binding observed)
row,Binder,IC50 [nM]
1,B1,0.0049
2,B2,0.062
3,B3,0.26
4,B4,0.0025
5,B5,0.0023

# Biological target: T2, monomeric monkey CD48 expressed with a …
# Test: competition ELISA; blocks mfCD48-mmH binding to coated h2B4-hFc
# Protocol: as §1
row,Binder,IC50 [nM]
1,B1,0.023
2,B2,0.24
3,B3,0.37
4,B6,0.22
5,B4,0.024
6,B5,0.013

# Biological target: T1, human CD48 (on primary human peripheral …)
# Test: cell-based or functional assay
# Remark: another data set of the same source
Binder,Inhibition of IFN-gamma Release IC50; Donor 1 [Molar],Inhibition of IFN-gamma Release IC50; Donor 2 [Molar],Inhibition of IFN-gamma Release IC50; Donor 3 [Molar],Inhibition of IFN-gamma Release IC50; Donor 4 [Molar],Inhibition of IFN-gamma Release IC50; Donor 5 [Molar]
B1,4.9e-11,3e-11,1.1e-10,1.7e-10,1.5e-11
B2,2.7e-11,1.1e-10,1.9e-10,9.5e-11,1.9e-11
B3,7.8e-10,1.9e-10,1.1e-06,1.5e-09,2.7e-10
B6,9.1e-11,4.6e-10,8.3e-11,4.8e-10,9.4e-11
B4,2.1e-11,7.6e-11,–,1.1e-10,1.1e-11
B5,4.9e-11,3.4e-11,1.3e-10,7.5e-11,1.9e-11

# Biological target: T3, biotinylated dimeric human CD48 protein …
# Test: competition ELISA; blocks bio-hCD48-mFc binding to coated h2B4-hFc
# Protocol: as §1
row,Binder,IC50 [nM]
1,B1,0.022
2,B2,0.064
3,B3,0.58
4,B6,0.49
5,B4,0.026
6,B5,0.0088

# Biological target: T3, biotinylated dimeric human CD48 protein …
# Test: competition ELISA; blocks bio-hCD48-mFc binding to coated h2B4-mFc
# Protocol: as §1
row,Binder,IC50 [nM]
1,B1,0.0086
2,B2,0.029
3,B3,0.49
4,B4,0.022
5,B5,0.0055
